Experimental data published in PMC4092090, “Investigation of a MMP-2 Activity-Dependent Anchoring Probe for Nuclear Imaging of Cancer” (PLoS ONE, 2014).
Entries after “also recorded” stand apart in the source; their conditions may differ.

Experiments:
[1] = tested on: HT1080 tumor bearing mice; set-up: species or system mouse (Balb/c nu-nu); conditions: mouse, in vivo, iv
Experimental: Female Balb/c nu-nu mice (5 weeks old, Japan SLC, Inc., Shizuoka, Japan) were housed under a 12-h light/12-h dark cycle and given free access to food and water. HT1080 cells (5×10^6 cells/100 μl PBS (-)/mouse) were subcutaneously inoculated into the right hind leg of Balb/c nu-nu mice. Animals were used for experiments two weeks after inoculation when the mean tumor size was 5.7±2.2 mm along the major axis. […]3000 and […] (37 kBq, 100 μl in PBS including 3% bovine serum albumin and 0.1% Tween 80) were injected intravenously into the tail vein of tumor bearing mice. The mice were sacrificed at various post-injection time points (n = 3 for each time point), and the organs of interest including the tumor tissues were collected for determination of the weights. The radioactivity of each sample was measured with a NaI well-type scintillation counter. From fitting to the two phase decay curves for blood radioactivity data analyzed by GraphPad Prism 6 (GraphPad Software, San Diego, CA), whole body pharmacokinetic parameters such as blood half-lives, distribution volume, mean residence time and total clearance were calculated for each of the probes and the values compared. Simple pharmacokinetic analysis using a single tissue compartment model was applied to the biodistribution data to calculate rate constants (K1 and k2) for radioactivity transfer from blood to tumor and clearance from tumor to blood by PMOD version 3.2. In addition, MDAP3000 (7.4 MBq in 200 μl) was injected intravenously into the tail vein of tumor bearing mice for metabolite analysis in tumors excised 3, 6, and 24 hr post injection (n = 2 each). Tumor homogenates were prepared on ice and insoluble material was removed by centrifugation after methanol treatment. The resulting supernatant was analyzed by RP-HPLC.

[2] = format: physicochemical; conditions: pH 7.4
Experimental: The experimental determination of probe partition coefficients (log P values) was performed in 1-octanol and 0.02 M phosphate buffer pH 7.4 where the two phases were pre-saturated with each other. 1-Octanol (200 µl) and phosphate buffer (200 µl) were pipetted into LoBind Eppendorf tubes containing 0.37 MBq of probes. The tube was vortexed for 10 seconds, and centrifuged (5 min, 4000×g). Aliquots (50 µl) from the 1-octanol and buffer phases were transferred into two test tubes for radioactivity counting with a NaI well-type scintillation counter (1470 WIZARD, Perkin Elmer, Kanagawa, Japan). The partition coefficient was calculated using the equation P = (counts/µl in 1-octanol)/(counts/µl in buffer).

[3] = tested on: HT1080 tumor bearing mice; set-up: species or system mouse (Balb/c nu-nu); conditions: mouse, in vivo, iv; remark: listed apart in the source
Experimental: (§1) […]3000 and […] (37 kBq, 100 μl in PBS including 3% bovine serum albumin and 0.1% Tween 80) were injected intravenously into the tail vein of tumor bearing mice. The mice were sacrificed at various post-injection time points (n = 3 for each time point), and the organs of interest including the tumor tissues were collected for determination of the weights. The radioactivity of each sample was measured with a NaI well-type scintillation counter. From fitting to the two phase decay curves for blood radioactivity data analyzed by GraphPad Prism 6 (GraphPad Software, San Diego, CA), whole body pharmacokinetic parameters such as blood half-lives, distribution volume, mean residence time and total clearance were calculated for each of the probes and the values compared. Simple pharmacokinetic analysis using a single tissue compartment model was applied to the biodistribution data to calculate rate constants (K1 and k2) for radioactivity transfer from blood to tumor and clearance from tumor to blood by PMOD version 3.2. In addition, MDAP3000 (7.4 MBq in 200 μl) was injected intravenously into the tail vein of tumor bearing mice for metabolite analysis in tumors excised 3, 6, and 24 hr post injection (n = 2 each). Tumor homogenates were prepared on ice and insoluble material was removed by centrifugation after methanol treatment. The resulting supernatant was analyzed by RP-HPLC.

[4] = tested on: HT1080 tumor xenograft; set-up: species or system mouse (Balb/c nu-nu); conditions: mouse, in vivo, iv
Experimental: as §1

[5] = tested on: HT1080 human fibrosarcoma cells; assay: Cellular uptake study; format: cell-based; conditions: 5×10^5 HT1080 cells, FBS-free DMEM, 37 kBq probe, 30 min incubation, radioactivity counting, Fig. 3a
Experimental: HT1080 human fibrosarcoma cells were purchased from American Type Culture Collection (ATCC, Manassas, VA USA) and cultured in DMEM with low glucose (Invitrogen), 10% fetal bovine serum (FBS), and penicillin/streptomycin. MMP-2 cDNA was cloned into the pENTR vector (Invitrogen) and inserted into the pLenti6 vector (Invitrogen) as previously described, [7]. […] Protein quantitation was performed by BCA protein assay (Thermo Fisher Scientific, Inc. Rockford, IL USA). The cellular uptake study of MDAP3000 pretreated with activated MMP-2 (63 nM) in the presence or absence of GM6001 (100 µM) was performed as described above.

[6] = molecular target: T1, Human-recombinant MMP-2 protein (Homo sapiens, UniProt P08253); assay: Cleavage assay; format: biochemical; conditions: activated MMP-2 1–5 nM, 370 kBq probe, 37°C, 2 hr, pH 7.5 assay buffer, RP-HPLC, Fig. 3b
T1 construct: purchased R & D Systems, Inc. 902-MP-010
T1 sequence (P08253 110-660): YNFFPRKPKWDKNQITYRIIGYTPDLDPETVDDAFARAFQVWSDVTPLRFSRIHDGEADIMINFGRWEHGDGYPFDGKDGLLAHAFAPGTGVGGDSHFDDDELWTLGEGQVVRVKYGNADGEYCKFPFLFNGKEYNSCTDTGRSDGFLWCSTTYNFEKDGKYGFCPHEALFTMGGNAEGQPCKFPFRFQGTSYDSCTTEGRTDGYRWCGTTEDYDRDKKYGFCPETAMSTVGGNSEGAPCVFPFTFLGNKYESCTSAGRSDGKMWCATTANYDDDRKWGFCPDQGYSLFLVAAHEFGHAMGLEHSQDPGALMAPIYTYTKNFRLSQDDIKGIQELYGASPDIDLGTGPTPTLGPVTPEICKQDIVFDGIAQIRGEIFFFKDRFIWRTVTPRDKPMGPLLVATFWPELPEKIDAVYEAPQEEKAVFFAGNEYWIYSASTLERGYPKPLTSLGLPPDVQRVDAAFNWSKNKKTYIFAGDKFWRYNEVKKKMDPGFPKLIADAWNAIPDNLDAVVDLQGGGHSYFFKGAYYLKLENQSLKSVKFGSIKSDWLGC
Experimental: Human-recombinant MMP-2 protein (902-MP-010, R & D Systems, Inc., Minneapolis, MN USA) was activated with p-aminophenylmercuric acetate (1 mM) in assay buffer (50 mM Tris-HCl, 150 mM NaCl, 10 mM CaCl2, 5 µM ZnCl2, 0.02% Brij 35, pH 7.5). MDAP1000, MDAP3000, and MDAP5000 (370 kBq) were incubated at 37°C for 2 hr with activated MMP-2 (1–5 nM) and a MMP inhibitor (0 or 100 µM, GM6001, Merck KGaA, Darmstadt, Germany). The reaction was quenched by addition of methanol, and the percentage of cleaved peptide was estimated by RP-HPLC.

Substance	Blood clearance (in words) [1]	T/B ratios over the experimental period [1]	log P (partition coefficient) [2]	Blood half-life, Fast [3]	Clearance (total clearance) [3]	Distribution volume [3]	Mean residence time [3]	K1, rate constant for transfer from blood to tumor, Mean [4]	Cellular accumulation (radioactivity in tumor cells) [5]	Cleavage by MMP-2 [6]
Palmitoyl-Dap(p-SCN-Bn-DTPA-^111In)-10-Adc-Gly-Pro-Leu-Gly-OH [MDAPCV]	slow blood clearance	less than 0.3	0.29±0.07	4.17 h	0.0025 mL/min	2.16 mL	860 min	0.0022 mL/g/min	high accumulation group	
Palmitoyl-Dap(p-SCN-Bn-DTPA-^111In)-10-Adc-Gly-Pro-Leu-Gly-Val-Arg-Gly-Lys(ivDde)-PEG5000 [MDAP5000]			−1.04±0.16						significantly lower radioactivity	concentration-dependent manner; also recorded: rather low
